From publication PMC5723419

Target: Aminopeptidase P from Pseudomonas aeruginosa (Pa-PepP) (Pseudomonas aeruginosa PA14)
Assay: crystal structure

“Aminopeptidase P from Pseudomonas aeruginosa (Pa-PepP) (enzyme)” showed a stoichiometry N of 4.
